Measured values as given in article PMC10702411.

Legend:
[1] = biological target: third BIR domain of BIRC2 (BIRC2_(BIR3)), GST cleaved (human) (UniProt Q13490); experiment: other fluorescence titration
[2] = biological target: C-terminal fluorescein-labeled H3 peptide (1–12) (UniProt P68431); experiment: MST

Sequence of third BIR domain of BIRC2 (BIRC2_(BIR3)), GST cleaved (human) (Q13490 261-346): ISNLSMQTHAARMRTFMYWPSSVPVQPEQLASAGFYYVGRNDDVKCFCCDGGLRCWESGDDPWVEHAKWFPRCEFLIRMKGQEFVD

| Substance | Kd [1] | Kd [2] |
| --- | --- | --- |
| H3_(1–12) peptide (residues 1–12 of H3) (from UniProt P68431 2-13) | 400 nM |  |
| third BIR domain of BIRC2 (BIRC2_(BIR3)), GST cleaved (from UniProt Q13490 261-346) (domain or fragment) |  | 340 nM |
